B1: LINE1-mini (parent)
chain: GGCAGAGCUCAACACAGCGUGGCAAAGUGGCUGUGGCUAGACUGCC

Variants of: B1
Assay: self-cleavage, relative activity (ratio to wild type); higher = more cleavage; in vitro, sequencing; the parent is a self-cleaving ribozyme

Question: With GGCAGAGCUCAACACAGCGUGGCAAAGUGGCUGUGGCUACACUCCC as the variant, how does the self-cleavage read?
Answer: The self-cleavage was 0.06.

Question: With GGCAGAGCUCAACACAGCGUGGCAAAGUGGUUGUGGCUCGACUGCC as the variant, how does the self-cleavage read?
Answer: The self-cleavage was 0.12.

Question: For GGCAGAGCUCAACACAGCGUGGCAUAAUGGCUGUGGCUAGACUGCC, which self-cleavage is on record?
Answer: The self-cleavage was 0.59.

Question: With GGCAGAGCUCAACACAGCGUGGCAAAGUGGGUGUGGCUAGACUGGC as the variant, how does the self-cleavage read?
Answer: The self-cleavage was 0.04.

Question: For GGCAGAGCUUAACACAACGUGGCAAAGUGGCUGUGGCUAGACUGCC, which self-cleavage is on record?
Answer: The self-cleavage was 0.34.

Question: Which self-cleavage does the source give for GGCAGAGCUCAACACAGCGUGGCAAAGUGGCUUUGGGUAGACUGCC here?
Answer: The self-cleavage was 0.05.

Question: Which self-cleavage does the source give for GGCAGAGCUCAACCCAGCGUGGCAAAGUGGCUGUGGCCAGACUGCC here?
Answer: Its self-cleavage is 0.07.

Question: Which self-cleavage does the source give for GGCAUAGCUCAACACAGCGUGGCAAAGUGGCUGUGGCUAGACUGCC here?
Answer: The self-cleavage was 0.14.

Question: For GGCAGAGCUCAACAGAGCGUGGCAAAGUGGCUGUGGCUAGACUGCC, which self-cleavage is on record?
Answer: Its self-cleavage is 0.07.

Question: For GGCAGAGCUCAACACAGCGUGGCAAACUGGCUGUGGCUAGACUGCC, which self-cleavage is on record?
Answer: Its self-cleavage is 0.72.

Question: With GGAAGAGCUCAACACAGCGUGGUAAAGUGGCUGUGGCUAGACUGCC as the variant, how does the self-cleavage read?
Answer: Its self-cleavage is 0.71.

Question: For CGCAGAGCUCAACCCAGCGUGGCAAAGUGGCUGUGGCUAGACUGCC, which self-cleavage is on record?
Answer: Its self-cleavage is 0.02.

Question: Which self-cleavage does the source give for GGCAGAGCUCAACACAGCGUGGCAAACUGGCUGUGACUAGACUGCC here?
Answer: Its self-cleavage is 0.35.

Question: With GGCAGAGCUCAACACAGCGAGGCAAAGAGGCUGUGGCUAGACUGCC as the variant, how does the self-cleavage read?
Answer: Its self-cleavage is 0.55.

Question: With GGCAGAGCUCAACACAGCGUGUCAAAGUGGCUGUGGCUAGACUGCU as the variant, how does the self-cleavage read?
Answer: Its self-cleavage is 1.22.

Question: Which self-cleavage does the source give for GGCAGAGCUCAACACAGCGUGGUAAAGUGGCUGAGGCUAGACUGCC here?
Answer: The self-cleavage was 0.28.

Question: For GGCAGCGCUCAACACAGCGUGGCAAAGUGGCCGUGGCUAGACUGCC, which self-cleavage is on record?
Answer: The self-cleavage was 0.05.

Question: For GGCAGAGCUCAACACAGUGUGGCAAAGUGACUGUGGCUAGACUGCC, which self-cleavage is on record?
Answer: The self-cleavage was 1.78.

Question: For UGCAGAGCUCAACACAGCGUAGCAAAGUGGCUGUGGCUAGACUGCC, which self-cleavage is on record?
Answer: The self-cleavage was 0.77.

Question: Which self-cleavage does the source give for GGCAGAGCUCAACACAGCUUGGGAAAGUGGCUGUGGCUAGACUGCC here?
Answer: The self-cleavage was 0.7.

Question: With GUCAGAGCUCAACACAGCGUGGCAAAGUGGCUAUGGCUAGACUGCC as the variant, how does the self-cleavage read?
Answer: The self-cleavage was 0.03.

Question: Which self-cleavage does the source give for GGCAGAGCUCAACACAGCGUGGCAAAGUGGCUGUGGCUACACCGCC here?
Answer: Its self-cleavage is 0.07.

Question: With GGCACAGCUCAACACAGCGUGGCAAAGUGGCUGUAGCUAGACUGCC as the variant, how does the self-cleavage read?
Answer: Its self-cleavage is 0.1.

Question: For GGCAGAGCUCAACACAGCGUGGCAAAGUGUCUGUGUCUAGACUGCC, which self-cleavage is on record?
Answer: Its self-cleavage is 0.05.

Question: For GGUAGAGCUCAACACAGCGUGGCAAAGUGGCUGUUGCUAGACUGCC, which self-cleavage is on record?
Answer: The self-cleavage was 0.18.

Question: Which self-cleavage does the source give for GGUAGAGCUCAACACAGCGUGGCAAAGUGGCUGUGGCUGGACUGCC here?
Answer: The self-cleavage was 0.2.

Question: Which self-cleavage does the source give for GGCAGAGCUCAACACAGCGUGGCAAAGUGCCUGUGCCUAGACUGCC here?
Answer: The self-cleavage was 0.06.

Question: With GGCAGAGCUCAUCACAGCGUGGCAAAGUGGCUGUGGCUAGACCGCC as the variant, how does the self-cleavage read?
Answer: Its self-cleavage is 0.14.

Question: Which self-cleavage does the source give for GGCAGAGCUCAACACAGCGUGGCAAAGUGGCCGUGGCUAGAAUGCC here?
Answer: The self-cleavage was 0.12.

Question: With GGCAGAGCUCAACACAGCGUGGCAAAGUGUCGGUGGCUAGACUGCC as the variant, how does the self-cleavage read?
Answer: The self-cleavage was 0.08.

Question: Which self-cleavage does the source give for GGCAGGGGUCAACACAGCGUGGCAAAGUGGCUGUGGCUAGACUGCC here?
Answer: The self-cleavage was 0.08.

Question: Which self-cleavage does the source give for GGCAGGGCUCAACACAGCGAGGCAAAGUGGCUGUGGCUAGACUGCC here?
Answer: The self-cleavage was 0.04.

Question: Which self-cleavage does the source give for GGCUGAGCUCAACACAGCGUGGGAAAGUGGCUGUGGCUAGACUGCC here?
Answer: The self-cleavage was 0.37.

Question: Which self-cleavage does the source give for GGCAGAGCUCAACACAGCGUGGCAAAGUGCCUGUGGCUCGACUGCC here?
Answer: Its self-cleavage is 0.26.

Question: Which self-cleavage does the source give for GGCAGAGCUCAAGACAGCGUGGCAAAGUGGCUGUGGCUAGAGUGCC here?
Answer: The self-cleavage was 0.09.

Question: Which self-cleavage does the source give for GGCAGAGCUGAACACAGCGUGGCAAAGUGGCUGUAGCUAGACUGCC here?
Answer: Its self-cleavage is 0.03.

Question: For GGAAGAGCUCAACACAGCGUGGCAAAGUGGCUGUGGCUAGACCGCC, which self-cleavage is on record?
Answer: Its self-cleavage is 0.28.

Question: For GGCAGAACUCAACACAGCGUGGCAAAGUGGCUGUCGCUAGACUGCC, which self-cleavage is on record?
Answer: Its self-cleavage is 0.13.

Question: With GGCAGAGCUCAAGACAGCGUGGCAAAGUGGCUGUGGCUAGACAGCC as the variant, how does the self-cleavage read?
Answer: The self-cleavage was 0.11.

Question: With GGCAGAGCUCAGCACAGCGGGGCAAAGUGGCUGUGGCUAGACUGCC as the variant, how does the self-cleavage read?
Answer: The self-cleavage was 0.02.

Question: For GGCAGAGCUCAACACAGCAUGGCAAAGCGGCUGUGGCUAGACUGCC, which self-cleavage is on record?
Answer: The self-cleavage was 0.51.

Question: For GGCAGACCUCAACACAGGGUGGCAAAGUGGCUGUGGCUAGACUGCC, which self-cleavage is on record?
Answer: Its self-cleavage is 0.09.

Question: For GGCAGAGCUCAACAAGGCGUGGCAAAGUGGCUGUGGCUAGACUGCC, which self-cleavage is on record?
Answer: The self-cleavage was 0.07.

Question: Which self-cleavage does the source give for GGCAGAGCUCAACACAGCGUGGCAACGUGGCAGUGGCUAGACUGCC here?
Answer: Its self-cleavage is 0.14.

Question: For GCCAGAGCUCAACACAGCGUGGCAAAGGGGCUGUGGCUAGACUGCC, which self-cleavage is on record?
Answer: Its self-cleavage is 0.05.

Question: For GGCAGAGCUCAACACAGCGUAGCAAAGUGGCUGUGCCUAGACUGCC, which self-cleavage is on record?
Answer: The self-cleavage was 0.1.

Question: Which self-cleavage does the source give for GGCAGAUCUCAACACAGCGUGGCAAACUGGCUGUGGCUAGACUGCC here?
Answer: The self-cleavage was 0.1.

Question: With GGCAGAGCUCAACACAGCGUGGCAAAGUGGCUGUGUCGAGACUGCC as the variant, how does the self-cleavage read?
Answer: Its self-cleavage is 0.02.

Question: For GGCAGAGCUCAACACAGCGUGGCAAAGUGGCUGUGUCCAGACUGCC, which self-cleavage is on record?
Answer: Its self-cleavage is 0.11.

Question: With GGCAGAGCUCAACACAGCGUGGCAAAGUGGCUGUGCCUUGACUGCC as the variant, how does the self-cleavage read?
Answer: The self-cleavage was 0.23.

Question: With GGCAGAGCUCAACACAGCGUGGCAAAGUGGCAGUGGCUAGUCUGCC as the variant, how does the self-cleavage read?
Answer: Its self-cleavage is 0.13.

Question: For UGCAGAGCUCAACACAGCGUGGCAAAGUGGCUGUGGGUAGACUGCC, which self-cleavage is on record?
Answer: The self-cleavage was 0.03.

Question: For GGCAGAGCUCAACACAGCGUGGCAUAGUGGCUGUGGCUAGACCGCC, which self-cleavage is on record?
Answer: Its self-cleavage is 0.1.

Question: For GGCAGAGCUCAACACAUCGUGGCAAAGUGGCUGUGGCUAGACUUCC, which self-cleavage is on record?
Answer: Its self-cleavage is 0.06.

Question: With GGCAGAGCUCAACACAGCGUGGCAAAGUGGCUGUGGCUAGAUUCCC as the variant, how does the self-cleavage read?
Answer: The self-cleavage was 0.13.

Question: Which self-cleavage does the source give for GGCAUAGCUCAACACAGCGUGGCAAAGUGGUUGUGGCUAGACUGCC here?
Answer: Its self-cleavage is 0.06.

— the RNAGym collection of RNA variant scans (doi:10.7554/elife.90254)
